# Reference: US20060128618A1 (APLAGEN, published 2006)
# *1 amine or outer side, *2 acyl side, *3 side chain or, on linkers, in order; H or OH if unused. Bridges are numbered along the chain shown (N, C = ends). Where no end group is shown, it is not given here. [ ]: non-standard residue; d: D form. Als = 5-aminolevulinic acid, O=C(CCC(=O)[*:2])CN[*:1]
# T1: erythropoietin receptor (UniProt P19235 25-508, limits assumed)
# T1 sequence (looked up): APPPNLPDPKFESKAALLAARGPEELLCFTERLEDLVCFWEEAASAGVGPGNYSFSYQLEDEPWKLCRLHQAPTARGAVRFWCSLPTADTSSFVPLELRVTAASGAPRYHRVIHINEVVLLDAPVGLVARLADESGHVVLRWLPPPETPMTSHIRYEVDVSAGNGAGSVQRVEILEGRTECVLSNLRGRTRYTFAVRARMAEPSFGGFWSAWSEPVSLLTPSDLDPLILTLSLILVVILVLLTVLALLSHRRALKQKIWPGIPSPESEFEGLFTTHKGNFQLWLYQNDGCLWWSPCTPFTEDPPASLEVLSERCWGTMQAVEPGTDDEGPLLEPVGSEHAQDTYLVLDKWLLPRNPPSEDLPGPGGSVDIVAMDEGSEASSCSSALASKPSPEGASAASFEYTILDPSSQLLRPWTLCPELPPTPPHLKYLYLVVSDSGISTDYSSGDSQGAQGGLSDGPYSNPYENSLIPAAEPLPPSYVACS
# Target: T1, erythropoietin receptor
# Experiment: cell-based or functional assay
row,"EC50, proliferation assay with TF-1 cells by MTT [µM]",Binder
1,4.66,GGTYSCHFGKLTWVCKPQGG (disulfide 6-15 (inferred)) [peptide SEQ. ID NO. 4 GGTYSCHFGKLTWVCKPQGG]
2,4.97,GGTYSCHFGRLTWVCKKQGG (disulfide 6-15 (inferred)) [peptide SEQ. ID NO. 6 GGTYSCHFGRLTWVCKKQGG]
3,2.52,GGTYSCHFGPLTWVCKKQGG (disulfide 6-15 (inferred)) [peptide GGTYSCHFGPLTWVCKKQGG]
4,3.28,GGTYSCHFGKLTWVCKKQGG (disulfide 6-15 (inferred)) [peptide SEQ. ID NO. 2 GGTYSCHFGKLTWVCKKQGG]
5,5,GGTYSCHF[Als]LTWVCKKQGG (disulfide 6-14 (inferred)) [peptide SEQ. ID NO. 8 GGTYSCHF-(Als)-LTWVCKKQGG]
6,5.26,GGTYSCHF[Als]LTWVCKPQGG (disulfide 6-14 (inferred)) [peptide SEQ. ID NO. 7 GGTYSCHF-(Als)-LTWVCKPQGG]
7,5.04,GGTYSCHFAKLTWVCKKQGG (disulfide 6-15 (inferred)) [peptide GGTYSCHFAKLTWVCKKQGG]
8,5.16,GGTYSCHFGRLTWVCKPQGG (disulfide 6-15 (inferred)) [peptide SEQ. ID NO. 5 GGTYSCHFGRLTWVCKPQGG]
